The text below walks through data of patent US11278600B2, “Human alpha-galactosidase variants” (Codexis, Inc., priority 2014, dated 2022).

Holding throughout (assay type): biochemical
A short description of data set [1]: HTP-analysis of yeast culture supernatants, no challenge (MUGal hydrolysis). The conditions noted are these: activity of the variant/activity of WT GLA (SEQ ID NO: 5), yeast supernatant. The method, boiled down:
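Activity read as 4-methylumbelliferyl α-D-galactopyranoside hydrolysis: fluorescence (355/448 nm) after sodium carbonate stop, following 30-180 min at 37° C with 2 mM MUGal stock at pH 4.6–4.8. Enzyme source is unchallenged culture supernatant of INVSc1 yeast expressing GLA variants, grown 66-84 h at 30° C.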

Data set [2] can be described thus: HTP-analysis of supernatants pretreated with acid (MUGal hydrolysis). As to conditions: challenge at pH 4.2; activity of the variant/activity of WT GLA (SEQ ID NO: 5); yeast supernatant. The method, boiled down:
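Supernatants from INVSc1 yeast secreting GLA variants were challenged at 37° C. for 1-3 h in McIlvaine buffer at pH 3.3-4.3. Residual activity was then measured on 4 mM MUGal substrate stock at pH 4.8 with citrate buffer pH 4.3, over 30-180 min at 37° C. Reactions were quenched with sodium carbonate and read by fluorescence (Ex 355/Em 448 nm).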

A short description of data set [3]: HTP-analysis of supernatants pretreated with base (MUGal hydrolysis). As to conditions: challenge at pH 7.1; activity of the variant/activity of WT GLA (SEQ ID NO: 5); yeast supernatant. The procedure, abridged: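 Fluorescence of released 4-MU (Ex 355 nm, Em 448 nm) after carbonate quench reports MUGal hydrolysis by GLA variants secreted from INVSc1 yeast. Before the acidic (pH 4.3-4.8) 30-180 min reaction at 37° C, supernatants had been pre-incubated at pH 7.0-9.7 for 1-18 h at 37° C.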

B1: 135 (protein)
chain: LDNGLARTPTMGWLHWERFMCNLDCQEEPDSCISEKLFMEMAELMVSEGWKDAGYEYLCIDDCWMAPQRDSEGRLQADPQRFPHGIRQLANYVHSKGLKLGIYADVGNKTCAGFPGSFGYYDIDAQTFADWGVDLLKFDGCYCDSLENLADGYKHMSLALNRTGRSIVYSCEWPLYMWPFQKPNYTEIRSYCNHWRNFADIDDSWKSIKSILDWTSFNQERIVDVAGPGGWNDPDMLVIGNFGLSWNQQVTQMALWAIMAAPLFMSNDLRHISPQAKALLQDKDVIAINQDPLGKQGYQLRQGDNFEVWERPLSGLAWAVAMINRQEIGGPRSYTIAVASLGKGVACNPACFITQLLPVKRKLGFYEWDSRLRSHINPTGTVLLQLENTMQMSKDLLL
modifications: Synthetic Polypeptide sequence of Variant No. 135 of mature Human GLA
Consider B1, for which the “Relative Activity of GLA Variants After No Challenge (NC)” value in data set [1] was “++ (++ = >1.5 to 2.5 relative activity over WT GLA (SEQ ID NO: 5))”. Further, in data set [2], the “Relative Activity of GLA Variants After Challenge at pH 4.2” value (from here on “Relative Activity … at pH 4.2”) is given as “+++ (+++ = >2.5 relative activity over WT GLA (SEQ ID NO: 5))”. In addition, in data set [3], the “Relative Activity of GLA Variants After Challenge at pH 7.1” value (“Relative Activity … at pH 7.1” for short) is reported as “++ (++ = >1.5 to 2.5 relative activity over WT GLA (SEQ ID NO: 5))”.

B2: 137 (protein)
chain: LDNGLARTPTMGWLHWERFMCNLDCQEEPDSCISEKLFMEMAELMVSEGWKDAGYEYLCIDDCWMAPQRDSEGRLQADPQRFPHGIRQLANYVHSKGLKLGIYADVGNKTCAGFPGSFGYYDIDAQTFADWGVDLLKFDGCYCDSLENLADGYKHMSLALNRTGRSIVYSCEWPLYMWPFQKPNYTEIRQYCNHWRNFADIDDSWKSIKSILDWTSFNQERIVDVAGPGGWNDPDMLVIGNFGLSWNQQVTQMALWAIMAAPLFMSNDLRHISPQAKALLQDKDVIAINQDPLGKQGYQLRAGDNFEVWERPLSGLAWAVAMINRQEIGGPRSYTIAVASLGKGVACNPACFITQLLPVKRKLGFYEWTSRLRSHINPTGTVLLQLENTMQMSKDLLL
modifications: Synthetic Polypeptide sequence of Variant No. 13 of mature Human GLA
B2: the “Relative Activity of GLA Variants After No Challenge (NC)” value in data set [1] is recorded as “+ (+ = 0.5 to 1.5 relative activity over WT GLA (SEQ ID NO: 5))”. The “Relative Activity … at pH 4.2” value in data set [2] is on record as “+ (+ = 0.5 to 1.5 relative activity over WT GLA (SEQ ID NO: 5))”. The “Relative Activity … at pH 7.1” value in data set [3] is “+ (+ = 0.5 to 1.5 relative activity over WT GLA (SEQ ID NO: 5))”.

B3: 140 (protein)
chain: LDNGLARTPTMGWLHWERFMCNLDCQEEPDSCISEKLFMEMAELMVSEGWKDAGYEYLCIDDCWMAPQRDSEGRLQADPQRFPHGIRQLANYVHSKGLKLGIYADVGNKTCAGFPGSFGYYDIDAQTFADWGVDLLKFDGCYCDSLENLADGYKHMSLALNRTGRSIVYSCEWPLYMWPFQKPNYTEIRQYCNHWRNFADIDDSWKSIKSILDWTSFNQERIVDVAGPGGWNDPDMLVIGNFGLSWNQQVTQMALWAIMAAPLFMSNDLRHISPQAKALLQDKDVIAINQDPLGKQGYQLRQGDNFEVWERPLSGLAWAVAMINRQEIGGPRSYTIAVASLGKGVACNPACFITQLLPVKRKLGFYEWTSRLRSHINPTGTVLLLLENTMQMSKDLLL
modifications: Synthetic Polypeptide sequence of Variant No. 140 of mature Human GLA
Regarding B3, in data set [1], the “Relative Activity of GLA Variants After No Challenge (NC)” value is on record as “++ (++ = >1.5 to 2.5 relative activity over WT GLA (SEQ ID NO: 5))”. The “Relative Activity … at pH 4.2” value in data set [2] is “++ (++ = >1.5 to 2.5 relative activity over WT GLA (SEQ ID NO: 5))”. In addition, the “Relative Activity … at pH 7.1” value in data set [3] is recorded as “++ (++ = >1.5 to 2.5 relative activity over WT GLA (SEQ ID NO: 5))”.

B4: 138 (protein)
chain: LDNGLARTPTMGWLHWERFMCNLDCQEEPDSCISEKLFMEMAELMVSEGWKDAGYEYLCIDDCWMAPQRDSEGRLQADPQRFPHGIRQLANYVHSKGLKLGIYADVGNKTCAGFPGSFGYYDIDAQTFADWGVDLLKFDGCYCDSLENLADGYKHMSLALNRTGRSIVYSCEWPLYMWPFQKPNYTEIRQYCNHWRNFADIDDSWKSIKSILDWTSFNQERIVDVAGPGGWNDPDMLVIGNFGLSWNQQVTQMALWAIMAAPLFMSNDLRHISPQAKALLQDKDVIAINQDPLGKQGYQLRQGDNFEVWERPLSGLAWAVAMINRQEIGGPRSYTIAVASLGKGVACNPACFITQLLPVKRKLGFYEWTSRLRSHINPTGTVLLHLENTMQMSKDLLL
modifications: Synthetic Polypeptide sequence of Variant No. 138 of mature Human GLA
B4: the “Relative Activity of GLA Variants After No Challenge (NC)” value in data set [1] is “++ (++ = >1.5 to 2.5 relative activity over WT GLA (SEQ ID NO: 5))”. Besides, the “Relative Activity … at pH 4.2” value in data set [2] is on record as “++ (++ = >1.5 to 2.5 relative activity over WT GLA (SEQ ID NO: 5))”. Further, in data set [3], the “Relative Activity … at pH 7.1” value is reported as “++ (++ = >1.5 to 2.5 relative activity over WT GLA (SEQ ID NO: 5))”.

B5: 136 (protein)
chain: LDNGLARTPTMGWLHWERFMCNLDCQEEPDSCISEKLFMEMAELMVSEGWKDAGYEYLCIDDCWMAPQRDSEGRLQADPQRFPHGIRQLANYVHSKGLKLGIYADVGNKTCAGFPGSFGYYDIDAQTFADWGVDLLKFDGCYCDSLENLADGYKHMSLALNRTGRSIVYSCEWPLYMWPFQKPNYTEIRQYCNHWRNFADIDDSWKSIKSILDWTSFNQERIVDVAGPGGWNDPDMLVIGNFGLSWNQAVTQMALWAIMAAPLFMSNDLRHISPQAKALLQDKDVIAINQDPLGKQGYQLRQGDNFEVWERPLSGLAWAVAMINRQEIGGPRSYTIAVASLGKGVACNPACFITQLLPVKRKLGFYEWTSRLRSHINPTGTVLLQLENTMQMSKDLLL
modifications: Synthetic Polypeptide sequence of Variant No. 136 of mature Human GLA
Take B5: the “Relative Activity of GLA Variants After No Challenge (NC)” value in data set [1] is on record as “+ (+ = 0.5 to 1.5 relative activity over WT GLA (SEQ ID NO: 5))”. The “Relative Activity … at pH 4.2” value in data set [2] was “+ (+ = 0.5 to 1.5 relative activity over WT GLA (SEQ ID NO: 5))”. Moreover, in data set [3], the “Relative Activity … at pH 7.1” value was “+ (+ = 0.5 to 1.5 relative activity over WT GLA (SEQ ID NO: 5))”.

B6: 139 (protein)
chain: LDNGLARTPTMGWLHWERFMCNLDCQEEPDSCISEKLFMEMAELMVSEGWKDAGYEYLCIDDCWMAPQRDSEGRLQADPQRFPHGIRQLANYVHSKGLKLGIYADVGNKTCAGFPGSFGYYDIDAQTFADWGVDLLKFDGCYCDSLENLADGYKHMSLALNRTGRSIVYSCEWPLYMWPFQKPNYTEIRQYCNHWRNFADIDDSWKSIKSILDWTSFNQERIVDVAGPGGWNDPDMLVIGNFGLSWNQQVTQMALWAIMAAPLFMSNDLRHISPQAKALLQDKDVIAINQDPLGKQGYQLRQGDNFEVWERPLSGLAWAVAMINRQEIGGPRSYTIAVASLGKGVACNPACFITQLLPVKRKLGFYEWTSRLRSHINPTGTVLLILENTMQMSKDLLL
modifications: Synthetic Polypeptide sequence of Variant No. 139 of mature Human GLA
Regarding B6, in data set [1], the “Relative Activity of GLA Variants After No Challenge (NC)” value is listed as “+ (+ = 0.5 to 1.5 relative activity over WT GLA (SEQ ID NO: 5))”. In data set [2], the “Relative Activity … at pH 4.2” value was “+ (+ = 0.5 to 1.5 relative activity over WT GLA (SEQ ID NO: 5))”. The “Relative Activity … at pH 7.1” value in data set [3] is “+ (+ = 0.5 to 1.5 relative activity over WT GLA (SEQ ID NO: 5))”.
